In patent publication US20050074845A1 (Sanofi, published 2005):

Molecular target: T1, human GLUT4 (human, UniProt P14672 1-509, limits assumed)
T1 construct: The ubiquitin-half fusion partners and the limits of the construct are not described; also called Glut 4 transporter
T1 sequence (looked up): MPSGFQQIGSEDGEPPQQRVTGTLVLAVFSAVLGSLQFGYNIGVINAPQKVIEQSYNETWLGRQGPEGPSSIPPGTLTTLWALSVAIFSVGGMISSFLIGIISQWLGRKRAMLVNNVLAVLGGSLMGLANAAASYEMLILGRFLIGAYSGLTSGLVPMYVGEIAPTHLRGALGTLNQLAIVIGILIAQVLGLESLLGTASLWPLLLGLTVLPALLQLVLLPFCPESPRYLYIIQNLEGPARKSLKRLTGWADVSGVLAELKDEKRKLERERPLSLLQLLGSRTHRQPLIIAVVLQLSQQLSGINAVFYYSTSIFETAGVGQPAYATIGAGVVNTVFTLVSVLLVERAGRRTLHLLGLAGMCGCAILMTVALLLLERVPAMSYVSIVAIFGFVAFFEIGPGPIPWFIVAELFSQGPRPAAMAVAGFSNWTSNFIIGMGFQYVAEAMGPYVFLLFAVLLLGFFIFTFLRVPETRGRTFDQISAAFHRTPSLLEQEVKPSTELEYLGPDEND
Test: split-ubiquitin protein interaction assay in yeast

B1: yeast Erg4 (enzyme)
chain: not shown
notes: The ubiquitin-half fusion partners and the limits of the construct are not described; also called Erg4 protein; sterol C-24(28)-reductase
Does B1 bind?
Result: binds
